Reference: publication PMC5062604

Molecular target: Pseudomonas aeruginosa type I-F CRISPR-Cas surveillance complex (Csy complex) (P. aeruginosa) (UniProt Q02MM1)
Experiment: SEC; competition: purified Csy complex pre-incubated 1 h with a 10-fold molar excess of FLAG-tagged AcrF1 (mutant or wild type), then an equal amount of HA-tagged wild-type AcrF1 added for 1 h; size exclusion chromatography; peak fractions by SDS-PAGE, silver staining and Western blot

A percent exchanged with HA-tagged wild-type AcrF1 at 1 h of 50% was found for “FLAG-tagged AcrF1 E31A (natural protein)” in this work.
A percent exchanged with HA-tagged wild-type AcrF1 at 1 h of 50% was found for “FLAG-tagged AcrF1 Y20A (natural protein)” in this work.
